Measurements taken from US20240336656A1 (Bicycle, published 2024).
Starred links: 1 amine or outer side, 2 acyl side, 3 side chain; linkers in the order of their positions; H or OH if unused. Positions of bridges follow the written chain, without caps; N, C: chain ends. Non-standard residues stand in square brackets, D forms with d. Chains are numbered I, II in the order given. No end group written: not given here. PYA = 4-pentynoic acid on Lys NZ, clicked (triazole) to linker azide; TATA = O=C(CC[*:1])N1CN(C(=O)CC[*:2])CN(C(=O)CC[*:3])C1; 1Nal = N[C@@H](Cc1cccc2ccccc12)C(=O)O; Hyp = O=C(O)[C@@H]1C[C@@H](O)CN1; hArg = N=C(N)NCCCC[C@H](N)C(=O)O; tBuAla = CC(C)(C)C[C@H](N)C(=O)O; Nle = CCCC[C@H](N)C(=O)O

Experiments:
CD137 (TNFRSF9) on cells [1] = molecular target: T1, CD137 (TNFRSF9) on cells (human, UniProt Q07011 24-255); test: cell-based or functional assay
CD137 (TNFRSF9) on cells [2] = molecular target: T1, CD137 (TNFRSF9) on cells; test: cell-based or functional assay; remark: listed apart in the source

T1 sequence (Q07011 24-255): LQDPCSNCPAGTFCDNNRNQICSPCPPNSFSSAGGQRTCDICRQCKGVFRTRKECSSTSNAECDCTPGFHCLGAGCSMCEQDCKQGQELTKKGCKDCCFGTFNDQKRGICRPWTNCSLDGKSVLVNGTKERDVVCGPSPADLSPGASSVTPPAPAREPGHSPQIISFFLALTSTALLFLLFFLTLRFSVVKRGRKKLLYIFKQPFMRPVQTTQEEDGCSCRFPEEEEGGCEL

B1: BCY11863 (peptide)
peptide 1: {N‑(acid-PEG3)‑N‑bis(PEG3-azide)}-CP[1Nal][dD]CM[hArg]DWSTP[Hyp]WC
peptide 2: Ac-C[tBuAla]PE[dK](PYA)PYCFADPY[Nle]CA
modifications: linker I:1-I:5-I:15, II:1-II:8-II:15 via TATA; also: heterotandem: one BCY8116 (chain 1) joined through N-(acid-PEG3)-N-bis(PEG3-azide) linker to two BCY8928 (chain 2), triazole via D-Lys(PYA)
Question: Which “EC50 (nM) of fold induction over background, CD137 reporter assay, coculture with CT26#7 (mouse)” value (CD137 (TNFRSF9) on cells [1]) does the source give for B1 here?
Answer: Its value is 0.14 nM.

Question: What about the “EC50 (nM) of fold induction over background, CD137 reporter assay, coculture with HT1376 (human)” value (CD137 (TNFRSF9) on cells [1]) of the same binder?
Answer: The value was 0.52 nM.

Question: And the “EC50 (nM) of fold induction over background, CD137 reporter assay, coculture with MC38#13 (mouse)” value (CD137 (TNFRSF9) on cells [1])?
Answer: The value was 0.31 nM.

Question: And the “EC50 (nM) of fold induction over background, CD137 reporter assay, coculture with MDA-MB-468 (human)” value (CD137 (TNFRSF9) on cells [1])?
Answer: The value was 0.23 nM.

Question: And the “EC50 (nM) of fold induction over background, CD137 reporter assay, coculture with NCI-H292 (human)” value (CD137 (TNFRSF9) on cells [1])?
Answer: Its value is 0.28 nM.

Question: What about the “EC50 (nM) of fold induction over background, CD137 reporter assay, coculture with NCI-H322 (human)” value (CD137 (TNFRSF9) on cells [1]) of the same binder?
Answer: The value was 0.33 nM.

Question: What about the “EC50 (nM) of fold induction over background, CD137 reporter assay, coculture with T47D (human)” value (CD137 (TNFRSF9) on cells [1]) of the same binder?
Answer: The value was 0.42 nM.

Question: And the “EC50 of IFNγ secretion, human PBMC co-culture with 4T1-D02 (mouse)” value (CD137 (TNFRSF9) on cells [2])?
Answer: The value was 0.04 nM.

Question: And the “EC50 of IFNγ secretion, human PBMC co-culture with H322 (human)” value (CD137 (TNFRSF9) on cells [2])?
Answer: Its value is 0.85 nM.

Question: What about the “EC50 of IFNγ secretion, human PBMC co-culture with MC38 # 13 (mouse)” value (CD137 (TNFRSF9) on cells [2]) of the same binder?
Answer: The value was 0.17 nM.

Question: And the “EC50 of IFNγ secretion, human PBMC co-culture with T-47D (human)” value (CD137 (TNFRSF9) on cells [2])?
Answer: The value was 0.08 nM.

Question: What about the “EC50 of IL-2 secretion, human PBMC co-culture with 4T1-D02 (mouse)” value (CD137 (TNFRSF9) on cells [2]) of the same binder?
Answer: The value was 0.16 nM.

Question: What about the “EC50 of IL-2 secretion, human PBMC co-culture with H322 (human)” value (CD137 (TNFRSF9) on cells [2]) of the same binder?
Answer: The value was 0.84 nM.

Question: What about the “EC50 of IL-2 secretion, human PBMC co-culture with HT1376 (human)” value (CD137 (TNFRSF9) on cells [2]) of the same binder?
Answer: Its value is 0.39 nM.

Question: And the “EC50 of IL-2 secretion, human PBMC co-culture with MC38 # 13 (mouse)” value (CD137 (TNFRSF9) on cells [2])?
Answer: Its value is 0.25 nM.

Question: And the “EC50 of IL-2 secretion, human PBMC co-culture with T-47D (human)” value (CD137 (TNFRSF9) on cells [2])?
Answer: The value was 0.2 nM.
